This is an account of results in PMC11772769 (2024).

The chains are these.
B1: MBP-SNX17 (full-length, wild-type) [not stated] / Peptide LRP1_(14mer) [modified: 5-FAM (5-carboxyfluorescein) on the N-terminus; 5-FAM (5-carboxyfluorescein) on the N-terminus] [not stated] (parent complex)
chain 1: MHFSIPETESRSGDSGGSAYVAYNIHVNGVLHCRVRYSQLLGLHEQLRKEYGANVLPAFPPKKLFSLTPAEVEQRREQLEKYMQAVRQDPLLGSSETFNSFLRRAQQETQQVPTEEVSLEVLLSNGQKVLVNVLTSDQTEDVLEAVAAKLDLPDDLIGYFSLFLVREKEDGAFSFVRKLQEFELPYVSVTSLRSQEYKIVLRKSYWDSAYDDDVMENRVGLNLLYAQTVSDIERGWILVTKEQHRQLKSLQEKVSKKEFLRLAQTLRHYGYLRFDACVADFPEKDCPVVVSAGNSELSLQLRLPGQQLREGSFRVTRMRCWRVTSSVPLPSGSTSSPGRGRGEVRLELAFEYLMSKDRLQWVTITSPQAIMMSICLQSMVDELMVKKSGGSIRKMLRRRVGGTLRRSDSQQAVKSPPLLESPDATRESMVKLSSKLSAVSLRGIGSPSTDASASDVHGNFAFEGIGDEDL
chain 2: MNVEIGNPTYKMYE

The assay covers variants of B1. The assay is described as follows: fluorescence anisotropy; 5-FAM-labeled LRP1 14-mer peptide.
Consider chain 1 MHFSIPETESRSGDSGGSAYVAYNIHVNGVLHCRVRYSQLLGLHEQLRKEYGANVLPAFPPKKLFSLTPAEVEQRREQLEKYMQAVRQDPLLGSSETFNSFLRRAQQETQQVPTEEVSLEVLLSNGQKVLVNVLTSDQTEDVLEAVAAKLDLPDDLIGYFSLFLVREKEDGAFSFVRKLQEFELPYVSVTSLRSQEYKIVLRKSYWDSAYDDDVMENRVGLNLLYAQTVSDIERGWILVTKEQHRQLKSLQEKVSKKEFLRLAQTLRHYGYLRFDACVADFPEKDCPVVVSAGNSELSLQLRLPGQQLREGSFRVTRMRCWRVTSSVPLPSGSTSSPGRGRGEVRLELAFEYLMSKDRLQWVTITSPQAIMMSICLQSMVDELMVKKSGGSIRKMLRRRVGGTLRRSDSQQAVKSPPLLESPDATRESMVKLSSKLSAVSLRGIGSPSTDASASDVAGNFAFEGIGDEDL [chain 1 H457A], for which the Kd amounted to 3800 nM.
In the case of chain 1 MHFSIPETESRSGDSGGSAYVAYNIHVNGVLHCRVRYSQLLGLHEQLRKEYGANVLPAFPPKKLFSLTPAEVEQRREQLEKYMQAVRQDPLLGSSETFNSFLRRAQQETQQVPTEEVSLEVLLSNGQKVLVNVLTSDQTEDVLEAVAAKLDLPDDLIGYFSLFLVREKEDGAFSFVRKLQEFELPYVSVTSLRSQEYKIVLRKSYWDSAYDDDVMENRVGLNLLYAQTVSDIERGWILVTKEQHRQLKSLQEKVSKKEFLRLAQTLRHYGYLRFDACVADFPEKDCPVVVSAGNSELSLQLRLPGQQLREGSFRVTRMRCWRVTSSVPLPSGSTSSPGRGRGEVRLELAFEYLMSKDRLQWVTITSPQAIMMSICLQSMVDELMVKKSGGSIRKMLRRRVGGTLRRSDSQQAVKSPPLLESPDATRESMVKLSSKLSAVSLRGIGSPSTDASASDVHGAFAAEGIGDEDL [chain 1 N459A, chain 1 F462A] it was 1500 nM.
